Tested on: MS2 coat protein
Assay: apparent KD of MS2 coat protein; designed switch direction (-1 OFF switch, 1 ON switch): -1; higher = weaker reporter binding
In short: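 The apparent KD reported per design is the median over clusters of curve fits to normalised cluster fluorescence. The RNA switches were transcribed on Illumina chips by stalled E. coli RNA polymerase. SNAP-549-labelled MS2 coat protein was titrated from 0.7 or 1.5 nM, doubling up to 3 µM, in Tris-HCl pH 7.5 buffer containing KCl, MgCl2, BSA, DTT, tRNA and Tween-20, with no input, 200 uM small-molecule ligand, or an oligonucleotide input.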

[1] = input ligand: microRNA oligo, concentration not stated
[2] = Eterna round: R95, input ligand: FMN 200 uM
[3] = Eterna round: R95, input ligand: microRNA oligo, concentration not stated
[4] = Eterna round: R95, input ligand: none

AUUAAACAUGUAGGAUAUGCGUGGCGAAGCUAUGCAGAAGGACAUGAGGAUCACCCAUGUAAAAGCGUCUGCGUACAGAUGCAA [Mat - Exclusion NG 1 - Mod of JL - D84] (Eterna round: R96, puzzle: Exclusion NG 1)
apparent KD of MS2 coat protein (input ligand: FMN 200 uM): 468 nM | apparent KD of MS2 coat protein [1]: 28 nM | apparent KD of MS2 coat protein (input ligand: none): 38.9 nM

AUUAAGCAGCAGGAUAUAAGUAUCUGAUGGUGGUUAGAAGGGCUGACAUGAGGAUCACCCAUGUGCUCUUCGUG [Tieruseres] (puzzle: Exclusion 6)
apparent KD of MS2 coat protein [2]: 16.1 nM | apparent KD of MS2 coat protein [3]: 10.1 nM | apparent KD of MS2 coat protein [4]: 14.1 nM

AUUAGCGUAGGAUAUUGAAACAUGUACAUGAGGAUCACCCAUGUGAGGUGAGUCUUCGUUUAAGAAGGGCGCAGAA [EX5 #40] (Eterna round: R97, puzzle: Exclusion 5)
apparent KD of MS2 coat protein (input ligand: FMN 200 uM): 213 nM | apparent KD of MS2 coat protein (input ligand: none): 1030 nM

AUUAUGUCAGGAUAUCAGUAGUAAAAAAAAAAAAUUACUACUGAGAAGGGACAUGAGGAUCACCCAUGUCAAAA [EX4 308: Super Stable 8] (Eterna round: R96, puzzle: Exclusion 4)
apparent KD of MS2 coat protein [1]: 21.3 nM

AUUCCUCCUGUGAGGAUAUGCGUUACGCACCCGUCGCAGAAGGCACAUGAGGAUCACCCAUGUGAGUUACCAAU [BmEX4 A.11] (Eterna round: R97, puzzle: Brourd's mod of Exclusion 4)
apparent KD of MS2 coat protein (input ligand: FMN 200 uM): 166 nM | apparent KD of MS2 coat protein (input ligand: none): 18.9 nM

AUUUAACAUGAGGAUCACCCAUGUGAGGAUAUGUCCAUUUUAAACAAAUAGGAUAUGGACAGAAGGCACACCGG [JR_Exclusion1_Sub007] (puzzle: Exclusion 1)
apparent KD of MS2 coat protein [3]: 219 nM

AUUUAGAGAGGAUAUAUAUUGUGAAACAUGAGGAUCACCCAUGUAAUAAUAUGGAUAUAAAUAGAAGGCUCAUUUU [Mat - Exclusion 5 - JL mod - D11] (puzzle: Exclusion 5)
apparent KD of MS2 coat protein [2]: 26.1 nM | apparent KD of MS2 coat protein [3]: 21.2 nM | apparent KD of MS2 coat protein [4]: 25.1 nM

AUUUAGAGAGGAUAUAUAUUGUGAAACAUGAGGAUCACCCAUGUAAUAAUAUGGAUGUAAAUAGAAGGCUCAUUUA [Mat - Exclusion 5 - JL mod - D9] (puzzle: Exclusion 5)
apparent KD of MS2 coat protein [3]: 41.3 nM

AUUUUAACAUAGGAUAUCGAAUUUAUCAUUUAACGAGAAGGAUGAACAUGAGGAUCACCCAUGUGGUAUCAUGG [JL-ex6-3.01] (puzzle: Exclusion 6)
apparent KD of MS2 coat protein [2]: 160 nM | apparent KD of MS2 coat protein [3]: 265 nM | apparent KD of MS2 coat protein [4]: 105 nM

AUUUUGUGAGGAUAUCAGGUGUGCUAGCGUACUGGUACAUCUGAGAAGGCACAUGAGGAUCACCCAUGUUUAUU [Mat - Exclusion 4 - Mod of JL - D39] (puzzle: Exclusion 4)
apparent KD of MS2 coat protein [3]: 25.6 nM

CAAAAGCUAGGAUAUCGUAAACAAGACAUGAGGAUCACCCAUGUGUCCGUGGCUGACCUCCGAGAAGGAGCAAUAU [Bilate] (puzzle: Exclusion 5)
apparent KD of MS2 coat protein [2]: 23.6 nM | apparent KD of MS2 coat protein [3]: 16.8 nM | apparent KD of MS2 coat protein [4]: 18.6 nM

CAAAAGGUAGGAUAUUAUGCCUGUAACAUGAGGAUCACCCAUGUGGUCCGAGACGGAGUUUAAGAAGGACCGAAAA [Masomariat] (puzzle: Exclusion 5)
apparent KD of MS2 coat protein [2]: 895 nM | apparent KD of MS2 coat protein [3]: 169 nM | apparent KD of MS2 coat protein [4]: 190 nM

CAAAGAUAAGGAUAUUGAAGGUUCGACAUGAGGAUCACCCAUGUUAUGUUGGAAAAGGGACAAGAAGGUAUGAAAC [salish99_ex5_r4_211] (Eterna round: R97, puzzle: Exclusion 5)
apparent KD of MS2 coat protein (input ligand: FMN 200 uM): 28.2 nM | apparent KD of MS2 coat protein (input ligand: none): 35.8 nM

CAAGAAUCUAUAUAAAGGCACAUGAGGAUCACCCAUGUGGUCCGUAAAAUCAUGCGACAAGCCAUUUGCUCGUCGUG [Eternabot (L2) Solution 30] (Eterna round: R97, puzzle: Sensor, turn-off variant 1)
apparent KD of MS2 coat protein (input ligand: FMN 200 uM): 33.2 nM | apparent KD of MS2 coat protein (input ligand: none): 37.6 nM

CAAGCUUUGCGAGGAUAUGAUGGCCUAUAUGCCUCAGAAGGCGCAGAAACUUGAGGAUCACCCAAGUGAUGCAAAUACGAAAAU [Mutated MS2 EX1.9] (Eterna round: R96, puzzle: Exclusion NG 1)
apparent KD of MS2 coat protein (input ligand: FMN 200 uM): 78.1 nM | apparent KD of MS2 coat protein [1]: 17.3 nM | apparent KD of MS2 coat protein (input ligand: none): 21.8 nM

CAAUAACAAGCGAGAUCCUACAUGAGGAUCACCCAUGUGCUCGUCUUAAAAGGUACUGUGACGAAAGUCACGGUACC [Eli 87 + Mat D67 3] (Eterna round: R97, puzzle: Sensor, turn-off variant 1)
apparent KD of MS2 coat protein (input ligand: FMN 200 uM): 16.9 nM | apparent KD of MS2 coat protein (input ligand: none): 23 nM

CAAUUCCGAGGAUAUACAUGAGGAUCACCCAUGUCGGGCCUCAGCGUUUAGCGCCUCAGUAGAAGGCGGGUUUC [JL Riri mod 3] (puzzle: Exclusion 3)
apparent KD of MS2 coat protein [3]: 24.4 nM

CACAAAGUAGGAUAUAGAAUAAAAGACAUGAGGAUCACCCAUGUGUCGUUCAAGGUGAACCUAGAAGGACUGAAAA [EX5 A.28] (Eterna round: R97, puzzle: Exclusion 5)
apparent KD of MS2 coat protein (input ligand: FMN 200 uM): 45.1 nM | apparent KD of MS2 coat protein (input ligand: none): 116 nM

CACAUGUCAGGAUAUGGUCAAGACACAGAAUUAGCUGCGAGCCAGAAGGGACAUGAGGAUCACCCAUGUUCCUG [Eternabot (L1) Solution 58] (Eterna round: R97, puzzle: Exclusion 4)
apparent KD of MS2 coat protein (input ligand: FMN 200 uM): 19.5 nM | apparent KD of MS2 coat protein (input ligand: none): 16.3 nM

CACCGUUAAAGAGGAUAUCGUACAUGAGGAUCACCCAUGUAAUAAAUGAGAAUUUCGGAUGUAUGCGAGAAGGCUUAAAUCGGC [Ostracism 47 - Jieux - Exclusion NG 2] (Eterna round: R96, puzzle: Exclusion NG 2)
apparent KD of MS2 coat protein [1]: 39.5 nM

CACCGUUACACAGGAUAUCUUACAUGAGGAUCACCCAUGUAAUAAAUGAGAAUUUCGAAUGUAAAAGAGAAGGGUGGAAUCGGC [Ostracism 66 - Jieux - Exclusion NG 2] (Eterna round: R96, puzzle: Exclusion NG 2)
apparent KD of MS2 coat protein (input ligand: FMN 200 uM): 73.1 nM | apparent KD of MS2 coat protein [1]: 21.8 nM | apparent KD of MS2 coat protein (input ligand: none): 30.3 nM

CACCGUUACUGAGGAUAUCGUACAUGAGGAUCACCCAUGUAAUAAAUGAGAAUUUCGGAUGUAUGCGAGAAGGCAGGAAUCGGC [Ostracism 36 - Jieux - Exclusion NG 2] (Eterna round: R96, puzzle: Exclusion NG 2)
apparent KD of MS2 coat protein (input ligand: FMN 200 uM): 31.6 nM | apparent KD of MS2 coat protein [1]: 19.5 nM | apparent KD of MS2 coat protein (input ligand: none): 32.2 nM

CACCGUUAGCGAGGAUAUCGUACAUGAGGAUCACCCAUGUAAUAAAUGAGAAUUUCGGAUGUAUGCGAGAAGGCGCAAAUCGGC [Ostracism 41 - Jieux - Exclusion NG 2] (Eterna round: R96, puzzle: Exclusion NG 2)
apparent KD of MS2 coat protein [1]: 45.3 nM

From the supplement of paper PMC9170038
